Measured values as given in patent publication US20250109199A1.

Assays:
[1] = target: EEEV virus-like particles (VLPs), strain PE-6 (Eastern equine encephalitis virus, strain PE-6)
[2] = target: EEEV virus-like particles (VLPs), strain FL93-939, wild type (Eastern equine encephalitis virus, strain FL93-939)

| Substance | Kd [1] [nM] | Kd [2] [nM] | fold higher affinity than LA(2-3) [1] [fold] |
| --- | --- | --- | --- |
| monovalent VLDLR LA(2-3) (from UniProt P98155 70-151) (receptor) | 14000 |  |  |
| monovalent VLDLR LA(1-4) (from UniProt P98155 28-190) (receptor) | 37 |  |  |
| monovalent VLDLR LA(1-3) (from UniProt P98155 31-151) (receptor) | 33.8 |  |  |
| monovalent VLDLR LA(1-6) (from UniProt P98155 28-275) (receptor) | 15 | 50 |  |
| monovalent VLDLR LA(1-2) (from UniProt P98155 31-110) (receptor) | 1000 |  | 10 |
| monovalent VLDLR LA(1-5) (from UniProt P98155 28-231) (receptor) | 14.5 |  |  |
